In the supplement of paper PMC5998384:

Legend:
[1] = system: HeLa Kyoto; assay: thermal stability score vs G1/S (z-score of summed log2 fold changes over temperatures); higher = more thermally stable than in G1/S
[2] = system: HeLa Kyoto; assay: solubility change mitosis vs G1/S (difference of NP-40 vs SDS log2 ratios) (log2 ratio difference); higher = more soluble in mitosis
[3] = system: HeLa Kyoto; assay: solubility in G1/S (NP-40 vs SDS abundance) (log2 ratio); higher = more soluble; details: cell cycle stage: G1/S
[4] = cell cycle stage: early G1 (4.5 h after nocodazole release)
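Wherever solubility change mitosis vs G1/S (difference of NP-40 vs SDS log2 ratios) is given: synchronized HeLa Kyoto cells (double thymidine block for G1/S, nocodazole release for mitosis), protein amounts in NP-40 versus SDS lysates quantified by mass spectrometry, three biological replicates.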
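Wherever solubility in G1/S (NP-40 vs SDS abundance) is given: HeLa Kyoto cells arrested at G1/S by double thymidine block, proteins quantified by TMT10plex mass spectrometry in mild NP-40 versus SDS extracts, three biological replicates.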
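Wherever thermal stability score vs G1/S (z-score of summed log2 fold changes over temperatures) is given: synchronized HeLa Kyoto cells, proteins quantified by TMT10plex mass spectrometry, three biological replicates, mitosis taken 0.5 h after nocodazole release, G1/S directly after double thymidine block.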

Sequence of THBS1 (chain, as listed by the source): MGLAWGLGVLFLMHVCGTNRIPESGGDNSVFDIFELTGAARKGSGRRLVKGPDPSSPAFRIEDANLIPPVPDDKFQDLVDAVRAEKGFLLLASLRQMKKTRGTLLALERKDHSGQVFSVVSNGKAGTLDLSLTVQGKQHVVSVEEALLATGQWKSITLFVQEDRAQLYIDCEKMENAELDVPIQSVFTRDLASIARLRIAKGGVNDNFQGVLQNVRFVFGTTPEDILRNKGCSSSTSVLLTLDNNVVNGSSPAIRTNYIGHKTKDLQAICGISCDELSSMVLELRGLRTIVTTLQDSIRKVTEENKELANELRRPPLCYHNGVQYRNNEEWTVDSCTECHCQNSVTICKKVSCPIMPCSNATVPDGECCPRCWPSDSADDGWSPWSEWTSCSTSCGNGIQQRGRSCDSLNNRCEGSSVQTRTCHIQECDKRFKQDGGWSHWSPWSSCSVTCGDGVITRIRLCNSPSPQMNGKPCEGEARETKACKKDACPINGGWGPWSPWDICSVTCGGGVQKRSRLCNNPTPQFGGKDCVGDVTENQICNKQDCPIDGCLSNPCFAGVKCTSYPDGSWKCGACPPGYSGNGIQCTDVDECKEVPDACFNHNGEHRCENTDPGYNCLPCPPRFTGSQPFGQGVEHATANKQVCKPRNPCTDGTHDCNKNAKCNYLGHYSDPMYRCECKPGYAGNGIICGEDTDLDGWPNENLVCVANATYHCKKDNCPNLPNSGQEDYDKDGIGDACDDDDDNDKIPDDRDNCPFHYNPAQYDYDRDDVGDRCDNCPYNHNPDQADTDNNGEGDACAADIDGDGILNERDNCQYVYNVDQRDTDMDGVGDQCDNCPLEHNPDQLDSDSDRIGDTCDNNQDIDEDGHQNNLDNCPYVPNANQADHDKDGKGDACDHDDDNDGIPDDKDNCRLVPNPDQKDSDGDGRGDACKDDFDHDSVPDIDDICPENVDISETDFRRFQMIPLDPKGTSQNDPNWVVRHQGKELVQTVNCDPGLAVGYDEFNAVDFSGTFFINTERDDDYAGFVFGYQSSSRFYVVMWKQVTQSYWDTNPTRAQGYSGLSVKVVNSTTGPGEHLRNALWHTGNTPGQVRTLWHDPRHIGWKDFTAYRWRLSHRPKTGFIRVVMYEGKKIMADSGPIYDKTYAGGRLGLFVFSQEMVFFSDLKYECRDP

| Substance | thermal stability score [1, 4] | thermal stability score ([1]; cell cycle stage: mitosis) | solubility change mitosis (log2) [2] | solubility in G1/S (log2) [3] |
| --- | --- | --- | --- | --- |
| MLGPCMLLLLLLLGLRLQLSLGIIPVEEENPDFWNREAAEALGAAKKLQPAQTAAKNLIIFLGDGMGVSTVTAARILKGQKKDKLGPEIPLAMDRFPYVALSKTYNVDKHVPDSGATATAYLCGVKGNFQTIGLSAAARFNQCNTTRGNEVISVMNRAKKAGKSVGVVTTTRVQHASPAGTYAHTVNRNWYSDADVPASARQEGCQDIATQLISNMDIDVILGGGRKYMFRMGTPDPEYPDDYSQGGTRLDGKNLVQEWLAKRQGARYVWNRTELMQASLDPSVTHLMGLFEPGDMKYEIHRDSTLDPSLMEMTEAALRLLSRNPRGFFLFVEGGRIDHGHHESRAYRALTETIMFDDAIERAGQLTSEEDTLSLVTADHSHVFSFGGYPLRGSSIFGLAPGKARDRKAYTVLLYGNGPGYVLKDGARPDVTESESGSPEYRQQSAVPLDEETHAGEDVAVFARGPQAHLVHGVQEQTFIAHVMAFAACLEPYTACDLAPPAGTTDAAHPGRSVVPALLPLLAGTLLLLETATAP [ALPP] | -3.03 | -2.91 | -0.115 | -0.46 |
| MAASRLELNLVRLLSRCEAMAAEKRDPDEWRLEKYVGALEDMLQALKVHASKPASEVINEYSWKVDFLKGMLQAEKLTSSSEKALANQFLAPGRVPTTARERVPATKTVHLQSRARYTSEMRSELLGTDSAEPEMDVRKRTGVAGSQPVSEKQLAAELDLVLQRHQNLQEKLAEEMLGLARSLKTNTLAAQSVIKKDNQTLSHSLKMADQNLEKLKTESERLEQHTQKSVNWLLWAMLIIVCFIFISMILFIRIMPKLK [USE1] | 0.334 | 0.48 | -0.0501 | 0.00595 |
| MNLAEICDNAKKGREYALLGNYDSSMVYYQGVMQQIQRHCQSVRDPAIKGKWQQVRQELLEEYEQVKSIVSTLESFKIDKPPDFPVSCQDEPFRDPAVWPPPVPAEHRAPPQIRRPNREVRPLRKEMAGVGARGPVGRAHPISKSEKPSTSRDKDYRARGRDDKGRKNMQDGASDGEMPKFDGAGYDKDLVEALERDIVSRNPSIHWDDIADLEEAKKLLREAVVLPMWMPDFFKGIRRPWKGVLMVGPPGTGKTMLAKAVATECGTTFFNVSSSTLTSKYRGESEKLVRLLFEMARFYAPTTIFIDEIDSICSRRGTSDEHEASRRVKSELLIQMDGVGGALENDDPSKMVMVLAATNFPWDIDEALRRRLEKRIYIPLPTAKGRAELLKINLREVELDPDIQLEDIAEKIEGYSGADITNVCRDASLMAMRRRINGLSPEEIRALSKEELQMPVTKGDFELALKKIAKSVSAADLEKYEKWMVEFGSA [KATNAL1] | 1.07 | 0.457 | 0.119 | 0.0559 |
| EML1 | 0.361 | 0.0361 | -0.126 | -0.0717 |
| PPL | -0.748 | 1.36 | 0.304 | -0.342 |
| NHSL1 | 0.447 | 1.09 | -0.0684 | -0.0561 |
| MEASLGIQMDEPMAFSPQRDRFQAEGSLKKNEQNFKLAGVKKDIEKLYEAVPQLSNVFKIEDKIGEGTFSSVYLATAQLQVGPEEKIALKHLIPTSHPIRIAAELQCLTVAGGQDNVMGVKYCFRKNDHVVIAMPYLEHESFLDILNSLSFQEVREYMLNLFKALKRIHQFGIVHRDVKPSNFLYNRRLKKYALVDFGLAQGTHDTKIELLKFVQSEAQQERCSQNKSHIITGNKIPLSGPVPKELDQQSTTKASVKRPYTNAQIQIKQGKDGKEGSVGLSVQRSVFGERNFNIHSSISHESPAVKLMKQSKTVDVLSRKLATKKKAISTKVMNSAVMRKTASSCPASLTCDCYATDKVCSICLSRRQQVAPRAGTPGFRAPEVLTKCPNQTTAIDMWSAGVIFLSLLSGRYPFYKASDDLTALAQIMTIRGSRETIQAAKTFGKSILCSKEVPAQDLRKLCERLRGMDSSTPKLTSDIQGHASHQPAISEKTDHKASCLVQTPPGQYSGNSFKKGDSNSCEHCFDEYNTNLEGWNEVPDEAYDLLDKLLDLNPASRITAEEALLHPFFKDMSL [CDC7] | 2.43 | 2.74 | 0.0299 | -0.0102 |
| MKLKLKNVFLAYFLVSIAGLLYALVQLGQPCDCLPPLRAAAEQLRQKDLRISQLQAELRRPPPAPAQPPEPEALPTIYVVTPTYARLVQKAELVRLSQTLSLVPRLHWLLVEDAEGPTPLVSGLLAASGLLFTHLVVLTPKAQRLREGEPGWVHPRGVEQRNKALDWLRGRGGAVGGEKDPPPPGTQGVVYFADDDNTYSRELFEEMRWTRGVSVWPVGLVGGLRFEGPQVQDGRVVGFHTAWEPSRPFPVDMAGFAVALPLLLDKPNAQFDSTAPRGHLESSLLSHLVDPKDLEPRAANCTRVLVWHTRTEKPKMKQEEQLQRQGRGSDPAIEV [B3GAT3] | -0.256 | -0.376 | -0.044 | 0.166 |
| THBS1 | 4.61 | 5.07 | 0.0125 | -0.19 |
